Measurements reported in publication PMC11772769, “Selective cargo and membrane recognition by SNX17 regulates its interaction with Retriever” (EMBO Reports, 2024).
Changes are numbered by the printed parent chain. Where no end group is shown, it is not given here. The star is where a group is joined. 5FAM = O=C1OC2(c3ccc(O)cc3Oc3cc(O)ccc32)c2ccc(C(=O)*)cc21

T1: MBP-SNX17 (full-length, wild-type) (UniProt Q15036 1-470)
T1 construct: also called MBP-SNX17FL; WT; not shown: MBP, N-terminal, kept
T1 sequence (looked up): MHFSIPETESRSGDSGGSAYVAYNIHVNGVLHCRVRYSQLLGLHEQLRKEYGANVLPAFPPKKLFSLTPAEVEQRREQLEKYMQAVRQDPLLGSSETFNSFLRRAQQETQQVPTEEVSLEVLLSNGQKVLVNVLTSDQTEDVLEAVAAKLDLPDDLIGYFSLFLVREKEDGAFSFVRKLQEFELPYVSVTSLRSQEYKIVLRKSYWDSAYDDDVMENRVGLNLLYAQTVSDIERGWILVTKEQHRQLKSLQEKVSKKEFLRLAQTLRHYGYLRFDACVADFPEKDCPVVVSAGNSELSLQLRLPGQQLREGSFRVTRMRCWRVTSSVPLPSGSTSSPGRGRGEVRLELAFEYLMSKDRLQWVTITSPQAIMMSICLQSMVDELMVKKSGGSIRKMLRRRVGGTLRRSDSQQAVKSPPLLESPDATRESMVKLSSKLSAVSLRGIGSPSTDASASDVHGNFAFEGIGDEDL

T2: MBP-SNX17 N459A + F462A (UniProt Q15036 1-470, N459A | F462A)
T2 construct: not shown: MBP, N-terminal, kept
T2 sequence (looked up): T1 sequence (looked up) with N459A, F462A

T3: MBP-SNX17 L470G (UniProt Q15036 1-470, L470G)
T3 construct: not shown: MBP, N-terminal, kept
T3 sequence (looked up): T1 sequence (looked up) with L470G

B1: Peptide ITGB1_(D-13mer) (peptide)
peptide: 5FAM-AVTTVVNPKYEGK
notes: also called ITGB1 distal site; source: synthetic peptide (GenScript)
B2: GST-LRP1ICD (domain or fragment, UniProt Q07954 4444-4544, looked up)
chain: YKRRVQGAKGFQHQRMTNGAMNVEIGNPTYKMYEGGEPDDVGGLLDADFALDPDKPTNFTNPVYATLYMGGHGSRHSLASTDEKRELLGRGPEDEIGDPLA
notes: not shown: GST, N-terminal, kept
B3: MBP-SNX17 W321A (natural protein)
chain: T1 sequence (looked up) with W321A
notes: not shown: MBP, N-terminal, kept
B4: MBP-SNX17 H457A (natural protein)
chain: T1 sequence (looked up) with H457A
notes: as for B3
B5: MBP-SNX17 V380D (natural protein)
chain: T1 sequence (looked up) with V380D
notes: as for B3
B6: Peptide ITGB1_(P-14mer) (peptide)
peptide: 5FAM-KWDTGENPIYKSAV
notes: also called ITGB1 membrane-proximal site; source: synthetic peptide (GenScript)
B7: SNX17_(FERM-CT) (amino acids 109-470) (domain or fragment)
chain: TQQVPTEEVSLEVLLSNGQKVLVNVLTSDQTEDVLEAVAAKLDLPDDLIGYFSLFLVREKEDGAFSFVRKLQEFELPYVSVTSLRSQEYKIVLRKSYWDSAYDDDVMENRVGLNLLYAQTVSDIERGWILVTKEQHRQLKSLQEKVSKKEFLRLAQTLRHYGYLRFDACVADFPEKDCPVVVSAGNSELSLQLRLPGQQLREGSFRVTRMRCWRVTSSVPLPSGSTSSPGRGRGEVRLELAFEYLMSKDRLQWVTITSPQAIMMSICLQSMVDELMVKKSGGSIRKMLRRRVGGTLRRSDSQQAVKSPPLLESPDATRESMVKLSSKLSAVSLRGIGSPSTDASASDVHGNFAFEGIGDEDL

Columns and labels:
Conditions in all cases: both partners purified
[1] = target: B7; assay: fluorescence polarisation
[2] = target: T1, MBP-SNX17 (full-length, wild-type); assay: pull-down
MBP-SNX17 N459A + F462A = target: T2, MBP-SNX17 N459A + F462A; assay: fluorescence polarisation
Retriever complex [3] = target: T4, Retriever complex (UniProt O14972 1-297; Q9UBQ0 1-182; Q7Z3J2 1-963); assay: pull-down
MBP-SNX17 H457A = target: B4; assay: fluorescence polarisation
MBP-SNX17 L470G = target: T3, MBP-SNX17 L470G; assay: fluorescence polarisation
Retriever complex [4] = target: T4, Retriever complex; assay: pull-down; GST pull-down: GST-L2FBR on glutathione agarose, Retriever together with SNX17PX, SNX17 FERM-CT or MBP-SNX17FL; VPS35L band quantified; Coomassie

B1
Kd [1]: 125 µM

B2
binding result [2]: binds

5FAM-KLITYDNPAYEGID (source: synthetic peptide (GenScript)) [Peptide L2_(14mer)]
Kd [1]: 0.6 µM | binding result (MBP-SNX17 N459A + F462A): binds

B3
binding result (Retriever complex [3]): binds

B4
binding result (Retriever complex [3]): binds

B5
binding result (Retriever complex [3]): binds

5FAM-QQNGYENPTYKFFE (source: synthetic peptide (GenScript)) [Peptide APP_(14mer)]
Kd [1]: 19 µM

B6
Kd [1]: 72 µM

DPAFVTTPTKLITYDNPAYEGIDVDNTLYF (domain or fragment, not shown: GST, N-terminal, kept) [GST-L2FBR]
binding result [2]: binds

5FAM-MNVEIGNPTYKMYE (source: synthetic peptide (GenScript)) [Peptide LRP1_(14mer)]
binding result (MBP-SNX17 H457A): binds | Kd [1]: 2.2 µM | binding result (MBP-SNX17 L470G): binds | binding result (MBP-SNX17 N459A + F462A): binds

B7
binding result (Retriever complex [4]): binds
